According to article PMC11700592, “Noncoding RNA Terc-53 and hyaluronan receptor Hmmr regulate aging in mice” (Protein & Cell, 2024):

Target: T1, His-tagged Hmmr (mouse, UniProt Q00547 1-794)
T1 construct: Hmmr, mouse; It is not restated for the bacterial construct; also called His-Hmmr; purified Hmmr; source: bacteria BL21 (DE3), purified (Ni-NTA)
T1 sequence (looked up): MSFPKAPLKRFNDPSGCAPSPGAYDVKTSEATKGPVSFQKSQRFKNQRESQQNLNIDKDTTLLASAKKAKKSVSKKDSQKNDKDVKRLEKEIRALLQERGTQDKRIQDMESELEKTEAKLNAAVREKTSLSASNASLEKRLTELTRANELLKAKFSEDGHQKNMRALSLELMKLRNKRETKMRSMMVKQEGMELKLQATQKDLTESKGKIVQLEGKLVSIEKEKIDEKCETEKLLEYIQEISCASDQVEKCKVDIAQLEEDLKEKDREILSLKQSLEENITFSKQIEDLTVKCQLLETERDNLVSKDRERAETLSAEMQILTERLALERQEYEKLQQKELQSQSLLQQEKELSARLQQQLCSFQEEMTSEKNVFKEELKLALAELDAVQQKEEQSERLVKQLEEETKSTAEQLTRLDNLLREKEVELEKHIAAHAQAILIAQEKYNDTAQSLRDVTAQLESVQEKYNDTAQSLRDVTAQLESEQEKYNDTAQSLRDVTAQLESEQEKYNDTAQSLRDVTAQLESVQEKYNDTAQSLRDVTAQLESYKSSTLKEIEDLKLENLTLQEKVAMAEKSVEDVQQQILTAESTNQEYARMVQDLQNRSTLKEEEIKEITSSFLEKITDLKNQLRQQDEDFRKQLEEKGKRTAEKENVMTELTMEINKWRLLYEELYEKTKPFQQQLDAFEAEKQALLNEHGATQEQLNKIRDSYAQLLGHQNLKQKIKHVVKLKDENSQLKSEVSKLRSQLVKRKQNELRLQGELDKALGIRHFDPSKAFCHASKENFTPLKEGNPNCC
Experiment: co-IP; in vitro binding assay: purified His-tagged Hmmr and HA-tagged Trim25 mixed without RNA or with in vitro transcribed Terc-53, 5S rRNA, full-length Terc or Terc-53 mut; one sample with Terc-53 treated with RNase A; immunoprecipitated with His antibody, blot with HA antibody
Conditions: both partners purified

binding result: binds
B1: HA-tagged Trim25 (natural protein, mouse, UniProt Q61510 1-634, looked up)
chain: MAELNPLAEELSCSVCLELFKEPVTTPCGHNFCMSCLDETWVVQGPPYRCPQCRKVYQVRPQLQKNTVMCAVVEQFLQAEQARTPVDDWTPPARFSASSAATQVACDHCLTEIAVKTCLVCMASFCQEHLRPHFDSPAFQDHPLQSPIRDLLRRKCTQHNRLRELFCPEHGECICHICLVEHKTCSPTTLSQASADLEYKLRNKLTIMHSHINGATKALEDVRSKQQCVQDSMKRKMEQLRQEYMEMKAVIDAAETSSLRKLKEEEKRVYGKFDTIYQVLVKKKSEMQKLKAEVELIMDKGDEFEFLEKAAKLQGESTKPVYIPKIDLDHDLIMGIYQGAADLKSELKHSIKKLQKKSEEHNGSGNKGDQTQSTFKPVQPSKKTIQEKKTKKTPVAPGPPSHFSPNKLPTFGAPGQSLDSKATSPDAAPKASAAQPDSVGVKAKVLENFLTKSRTELLEYFVKVIFDYNTAHNKVSLSNKYTTASVSDGLQHYRSHPQRFTYCSQVLGLHCYKNGIHYWEVELQKNNFCGVGICYGSMERQGPESRLGRNPNSWCVEWFNNKISAWHNNVEKTLPSTKATRVGVLLNCDHGFVIFFAVTEKVHLMYKFKVDFTEALYPAFWVFSAGTTLSICSK
notes: Trim25, mouse; also called HA-Trim25; purified Trim25; source: purified
